Patent US20230287126A1 (BIO THERA SOLUTIONS, published 2023)
Numbering of substitutions follows the chain as printed.

B1: CP21-59 (scFv)
scFv (VH - linker - VL, VH at the N terminus): EVQLVESGGGLVQPGGSLRLSCAASSFSLKDSWIHWVRQAPGKGLEWVGWISPYGGSTYYADSVKGRFTISADTSKNTAYLQMNSLRAEDTAVYYCARRHWPGGFDYWGQGTLVTVSSGGGGSGGGGSGGGGSEIVLTQSPSSLSASVGDRVTITCLASQTIGTWLAWYQQKPGKSPQLLIYAASTLQSGVPSRFSGSGSGTDFTLTISSLQPEDVATYYCQQYYSTPRTFGQGTKVEIK
notes: also called CP21-59 scFv
B2: CP22-40 (scFv)
scFv (VH - linker - VL, VH at the N terminus): B1 scFv (VH - linker - VL, VH at the N terminus) with S26G, S28T, L29F, K30S, F105L, D106L, Y107P
notes: also called CP22-40 scFv
B3: CP22-44 (scFv)
scFv (VH - linker - VL, VH at the N terminus): B1 scFv (VH - linker - VL, VH at the N terminus) with S26G, F27L, S28R, L29P, K30A
notes: also called CP22-44 scFv
B4: CP22-45 (scFv)
scFv (VH - linker - VL, VH at the N terminus): B1 scFv (VH - linker - VL, VH at the N terminus) with S26N, F27S, S28H, K30R
notes: also called CP22-45 scFv
B5: L1-R2-4 (antibody, V domains shown)
VH: not shown
VL: EIVLTQSPSSLSASVGDRVTITCLASQTIGTWLAWYQQKPGKSPQLLIYAASTLQSGVPSRFSGSGSGTDFTLTISSLQPEDVATYYCQQYYSTPRTFGQGTKVEIKR
B6: L1-R2-89 (antibody, V domains shown)
VH: not shown
VL: B5 VL with E1D, V3Q, L4M, T53S, R96Y, E105D
B7: L1-R2-6 (antibody, V domains shown)
VH: not shown
VL: EIVLTQSPSSVSASVGDKLTMTCQASQDIGKHLNWYQQKPGKPPKLLIYGASNLKTGVPSRFSGTGSGTDFTLTISSLQPEDFATYYCQQSYTTPYTFGQGTRLEIKR
B8: L1-R2-18 (antibody, V domains shown)
VH: not shown
VL: EIVLTQSPSSVSASVGDRITITCRASQGIGSWLAWYQQKPGKAPSLLIYAASSLQSGVPSRFSGSGSGTDFTLTISSLQTEDVAVYYCQQYFSTPYTFGQGTKVDIKR
B9: L1-R2-78 (antibody, V domains shown)
VH: not shown
VL: DIQMTQSPSSFSASTGDRVTITCRASQGISSYLAWYQQKPGKAPKLLIYAASRLQSGVPSRFSGSGSGTDFTLTISSLQAEDVAVYYCQQYYSTPYTFGQGTKVDIKR
B10: L1-R2-85 (antibody, V domains shown)
VH: not shown
VL: B8 VL with E1D, V3Q, L4M, V11L, I19V, T22P, S31K, W32F
B11: CP11-71 scFv (scFv)
scFv: B1 scFv (VH - linker - VL, VH at the N terminus) with S26G, S28T, L29F, K30S, V64Y, K65R, G66S
notes: display fusion partner not described; VH at N terminus
B12: L1-R2-4-46 (antibody, human IgG1, kappa, V domains shown)
VH: EVQLVESGGGLVQPGGSLRLSCAASGFTFSDSWIHWVRQAPGKGLEWVGWISPYGGSTYYADSLGDRFTISADTSKNTAYLQMNSLRAEDTAVYYCARRHWPGGFDYWGQGTLVTVSS
VL: B5 VL
B13: L1-R2-4-47 (antibody, human IgG1, kappa, V domains shown)
VH: B12 VH with S63H, G65S, D66Q
VL: B5 VL
B14: L1-R2-4-71 (antibody, human IgG1, kappa, V domains shown)
VH: B12 VH with L64Y, G65R, D66S
VL: B5 VL
B15: L1-R2-4-36 (antibody, human IgG1, kappa, V domains shown)
VH: B12 VH with S63D, L64F, G65R, D66H
VL: B5 VL
B16: L1-R2-4-55 (antibody, human IgG1, kappa, V domains shown)
VH: B12 VH with S63G, L64M, G65R, D66S
VL: B5 VL

What follows are binders tested against T1, PD-L1-His-Biotin (human, UniProt Q9NZQ7 19-238, biotin-labelled (sites not given)) (assay: flow cytometry of yeast-displayed scFv with 1 nM PD-L1-His-Biotin, Streptavidin-PE; positive rate %).
T1 construct: also called PD-L1-His-Biotin antigen protein
T1 sequence (Q9NZQ7 other isoform, or with tags, fused parts or gaps): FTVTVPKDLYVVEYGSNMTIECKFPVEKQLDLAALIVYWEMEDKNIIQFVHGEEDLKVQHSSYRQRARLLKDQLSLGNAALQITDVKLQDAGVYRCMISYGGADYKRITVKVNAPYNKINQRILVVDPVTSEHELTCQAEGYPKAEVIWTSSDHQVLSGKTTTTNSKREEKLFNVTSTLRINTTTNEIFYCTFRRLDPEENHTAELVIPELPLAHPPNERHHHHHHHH
Experimental: (§1) The yeasts described above were incubated with 1 nM of PD-L1-His-Biotin antigen protein at room temperature for 1 h, washed 3 times with PBS at pH 7.4, then incubated with Streptavidin-PE fluorescent secondary antibody at room temperature for 30 min, and washed 3 times with PBS at pH 7.4. The fresh PBS was added, and loaded on the machine for assay.
B1: binds. B2: binds. B3: binds. B4: binds.

Each binder was assayed against T2, human PD-L1 overexpressed on CHO cells (human, UniProt Q9NZQ7 19-290) (assay: cell-based or functional assay).
T2 sequence (Q9NZQ7 19-290): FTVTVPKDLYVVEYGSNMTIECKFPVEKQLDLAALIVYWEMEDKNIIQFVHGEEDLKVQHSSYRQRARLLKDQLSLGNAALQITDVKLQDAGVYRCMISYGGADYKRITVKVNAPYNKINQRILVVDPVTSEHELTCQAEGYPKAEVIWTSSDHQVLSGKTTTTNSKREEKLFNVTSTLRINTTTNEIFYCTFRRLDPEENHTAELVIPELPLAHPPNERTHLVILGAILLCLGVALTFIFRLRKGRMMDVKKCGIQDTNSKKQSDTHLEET
With B5 the “EC50 (luciferase reporter luminescence, PD-1/PD-L1 Blockade Bioassay, CHO-PD-L1 + Jurkat-PD1 cells)” value (shortened to “EC50”) was 2.74 µg/mL. In the case of B6, the “EC50” value is reported as 3.78 µg/mL. For B7, the “EC50” value was 3.92 µg/mL. B8 was tested, and the “EC50” value was 5.09 µg/mL. B9 was tested, and the “EC50” value was 3.57 µg/mL. For B10, the “EC50” value was 5.22 µg/mL.

What follows are binders tested against T1, PD-L1-His-Biotin (assay: flow cytometry of yeast-displayed scFv with 1 nM PD-L1-His-Biotin, Streptavidin-PE).
Experimental: as §1
B11: binds.

Biological target: T2, human PD-L1 overexpressed on CHO cells
Assay: cell-based or functional assay
Remark: another data set of the same source
With B12 the “EC50” value was 0.224 µg/mL. For B13, the “EC50” value was 0.389 µg/mL. In the case of B14, the “EC50” value is reported as 0.382 µg/mL. For B15, the “EC50” value was 0.148 µg/mL. For B16, the “EC50” value was 0.401 µg/mL.
